Assay results: US20030078191A1 (published 2003)

T1: B42-FtsZ fusion (pB42-FtsZ, SHp256) (Escherichia coli, UniProt P0A9A6 1-383)
T1 construct: Yeast two-hybrid prey; entire FtsZ gene cloned into pB42
T1 sequence: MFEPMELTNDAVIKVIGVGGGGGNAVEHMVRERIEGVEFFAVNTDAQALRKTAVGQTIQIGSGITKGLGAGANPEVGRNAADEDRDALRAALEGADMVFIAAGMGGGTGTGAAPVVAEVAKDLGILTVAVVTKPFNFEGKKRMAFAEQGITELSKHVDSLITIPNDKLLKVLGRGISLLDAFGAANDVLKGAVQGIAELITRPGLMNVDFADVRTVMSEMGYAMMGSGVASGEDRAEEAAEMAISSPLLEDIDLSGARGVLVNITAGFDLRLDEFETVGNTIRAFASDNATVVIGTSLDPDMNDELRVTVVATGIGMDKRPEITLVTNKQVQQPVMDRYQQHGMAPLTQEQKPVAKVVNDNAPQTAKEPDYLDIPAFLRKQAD

T2: Gal4 activation domain alone (pGAD424 vector, no fusion) (UniProt P04386 768-881)
T2 sequence (looked up): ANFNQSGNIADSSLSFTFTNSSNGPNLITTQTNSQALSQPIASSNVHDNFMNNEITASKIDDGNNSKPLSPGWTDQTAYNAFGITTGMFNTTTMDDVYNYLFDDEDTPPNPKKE

T3: Gal4ad-FtsA fusion (UniProt P0ABH0 1-420)
T3 sequence: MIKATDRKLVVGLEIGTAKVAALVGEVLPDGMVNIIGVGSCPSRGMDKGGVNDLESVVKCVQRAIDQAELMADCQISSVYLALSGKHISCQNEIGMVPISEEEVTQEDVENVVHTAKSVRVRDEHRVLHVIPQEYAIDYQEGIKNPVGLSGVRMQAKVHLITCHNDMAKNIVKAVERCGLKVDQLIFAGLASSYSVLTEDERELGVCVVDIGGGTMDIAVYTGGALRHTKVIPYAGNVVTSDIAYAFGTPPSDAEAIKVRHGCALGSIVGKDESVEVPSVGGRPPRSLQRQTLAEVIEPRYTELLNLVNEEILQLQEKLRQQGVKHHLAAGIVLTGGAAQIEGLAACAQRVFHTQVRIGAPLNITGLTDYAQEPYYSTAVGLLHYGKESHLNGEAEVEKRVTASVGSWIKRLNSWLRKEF


Tests used:
[1] = biological target: T1, B42-FtsZ fusion (pB42-FtsZ, SHp256); assay: yeast two-hybrid (LexA fusion x B42 fusion), growth on plates without histidine
[2] = biological target: T1, B42-FtsZ fusion (pB42-FtsZ, SHp256); assay: yeast two-hybrid (LexA/B42), LEU2 and lacZ reporters, haploids and diploids
[3] = biological target: T2, Gal4 activation domain alone (pGAD424 …); assay: cell-based or functional assay
[4] = biological target: Gal4ad-ZipA(35-284) fusion (pGAD424 fusion) (Escherichia coli); assay: cell-based or functional assay
[5] = biological target: Gal4ad-ZipA(35-185) fusion (pGAD424 fusion) (Escherichia coli); assay: cell-based or functional assay
[6] = biological target: Gal4ad-ZipA(185-302) fusion (pGAD424 fusion) (Escherichia coli); assay: cell-based or functional assay
[7] = biological target: Gal4ad-ZipA(185-328) fusion (pGAD424 fusion) (Escherichia coli, UniProt P77173 185-328); assay: cell-based or functional assay
[8] = biological target: Gal4ad-ZipA(62-328) fusion (pGAD424 fusion) (Escherichia coli); assay: cell-based or functional assay
[9] = biological target: T3, Gal4ad-FtsA fusion; assay: yeast two-hybrid, Gal4 system

Binder | binding result [1] | binding result [2] | beta-galactosidase (lacZ reporter) activity, MUG fluorescence, yeast two-hybrid [3] | beta-galactosidase (lacZ reporter) activity, MUG fluorescence, yeast two-hybrid [4] | beta-galactosidase (lacZ reporter) activity, MUG fluorescence, yeast two-hybrid [5] | beta-galactosidase (lacZ reporter) activity, MUG fluorescence, yeast two-hybrid [6] | beta-galactosidase (lacZ reporter) activity, MUG fluorescence, yeast two-hybrid [7] | beta-galactosidase (lacZ reporter) activity, MUG fluorescence, yeast two-hybrid [8] | binding result [9]
LexA-OrfE fusion (kil as a fusion to the LexA DNA-binding protein) (other) MKALTARQQEVFDLIRDHISQTGMPPTRAEIAQRLGFRSPNAAEEHLKALARKGVIEIVSGASRGIRLLQEEEEGLPLVGRVAAGEPLLAQQHIEGHYQVDPSLFKPNADFLLRVSGMSMKDIGIMDGDLLAVHKTQDVRNGQVVVARIDDEVTVKRLKKQGNKVELLPENSEFKPIVVDLRQQSFTIEGLAVGVIRNGDWLMIAHHFGTDEIPRQCVTPGDYVLHEGRTYIASANNIKKRKLYIRNLTTKTFITDRMIKVFLGRDGLPVKAESW | no binding |  |  |  |  |  |  |  | 
LexA alone (pLexA vector, SHp40) (other) MKALTARQQEVFDLIRDHISQTGMPPTRAEIAQRLGFRSPNAAEEHLKALARKGVIEIVSGASRGIRLLQEEEEGLPLVGRVAAGEPLLAQQHIEGHYQVDPSLFKPNADFLLRVSGMSMKDIGIMDGDLLAVHKTQDVRNGQVVVARIDDEVTVKRLKKQGNKVELLPENSEFKPIVVDLRQQSFTIEGLAVGVIRNGDWL |  | no binding |  |  |  |  |  |  | 
Gal4bd-FtsZ(311-383) fusion (pAS2-1-FtsZ(311-383), SHp102) (other) MKLLSSIEQACDICRLKKLKCSKEKPKCAKCLKNNWECRYSPKTKRSPLTRAHLTEVESRLERLEQLFLLIFPREDLDMILKMDSLQDIKALLTGLFVQDNVNKDAVTDRLASVETDMPLTLRQHRISATSSSEESSNKGQRQLTVSVATGIGMDKRPEITLVTNKQVQQPVMDRYQQHGMAPLTQEQKPVAKVVNDNAPQTAKEPDYLDIPAFLRKQAD |  |  | 997 units | 8620 units | 971 units | 828 units | 2630 units | 7430 units | 
Gal4bd-OrfE fusion (pAS2-1 fusion of kil) (other, also called Gal4bd-Kil) MKLLSSIEQACDICRLKKLKCSKEKPKCAKCLKNNWECRYSPKTKRSPLTRAHLTEVESRLERLEQLFLLIFPREDLDMILKMDSLQDIKALLTGLFVQDNVNKDAVTDRLASVETDMPLTLRQHRISATSSSEESSNKGQRQLTVSMIAHHFGTDEIPRQCVTPGDYVLHEGRTYIASANNIKKRKLYIRNLTTKTFITDRMIKVFLGRDGLPVKAESW |  |  | 1230 units | 7580 units | 1140 units | 721 units | 1910 units | 8530 units | no binding
